The values that follow come from patent US20020025923A1 (University of California, published 2002).

The chains are these.
B1: CD34, component of PNAd from human tonsil (ligand, UniProt P28906 32-385, looked up)
chain: SLDNNGTATPELPTQGTFSNVSTNVSYQETTTPSTLGSTSLHPVSQHGNEATTNITETTVKFTSTSVITSVYGNTNSSVQSQTSVISTVFTTPANVSTPETTLKPSLSPGNVSDLSTTSTSLATSPTKPYTSSSPILSDIKAEIKCSGIREVKLTQGICLEQNKTSSCAEFKKDRGEGLARVLCGEEQADADAGAQVCSLLLAQSEVRPQCLLLVLANRTEISSKLQLMKKHQSDLKKLGILDFTEQDVASHQSYSQKTLIALVTSGALLAVLGITGYFLMNRRSWSPTGERLGEDPYYTENGGGQGYSSGPGTSPEAQGKASVNRGAQENGTGQATSRNGHSARQHVVADTEL
modifications: native glycoprotein carrying the MECA-79 epitope
B2: L-selectin/IgG chimera (entire extracellular domain of murine L-selectin fused to the Fc domain of human IgG1) (Fc fusion, UniProt P18337 39-332, looked up)
chain: WTYHYSEKPMNWENARKFCKQNYTDLVAIQNKREIEYLENTLPKSPYYYWIGIRKIGKMWTWVGTNKTLTKEAENWGAGEPNNKKSKEDCVEIYIKRERDSGKWNDDACHKRKAALCYTASCQPGSCNGRGECVETINNHTCICDAGYYGPQCQYVVQCEPLEAPELGTMDCIHPLGNFSFQSKCAFNCSEGRELLGTAETQCGASGNWSSPEPICQVVQCEPLEAPELGTMDCIHPLGNFSFQSKCAFNCSEGRELLGTAETQCGASGNWSSPEPICQETNRSFSKIKEGDYN
notes: extracellular domain; From supernatants of transfected 293 cells, protein-A purified; also called recombinant L-selectin/IgG chimera; not shown: Fc domain of human IgG1

The target in test [1] is T1, CD4/IgG chimera (entire extracellular domain of human CD4 fused to the Fc domain of human IgG1) (human, UniProt P01730 26-396).
T1 construct: extracellular domain; Control chimera; also called control CD4/IgG chimera; not shown: Fc domain of human IgG1
Put plainly: precipitation of PNAd with the IgG chimera (CD34 as a named component of PNAd).

The target in test [2] is B1. Put plainly: precipitation of PNAd with the L-selectin/IgG chimera, elution with EDTA.

On to B1, for which the binding result in test [1] is reported as “no binding”.
With B2, in test [2], the binding result was “binds”.
